# Assay results taken from patent publication US20180360749A1, “METHODS AND COMPOSITIONS FOR DELIVERY OF MEDICAMENTS TO THE LUNGS” (Paka Pulmonary Pharmaceuticals, priority 2007, published 2018).
# Legend:
# HNE [1] = biological target: T1, HNE (Homo sapiens, UniProt P08246); assay: Kinetic studies of affinity for HNE; type: biochemical
# T1 sequence (P08246 30-267): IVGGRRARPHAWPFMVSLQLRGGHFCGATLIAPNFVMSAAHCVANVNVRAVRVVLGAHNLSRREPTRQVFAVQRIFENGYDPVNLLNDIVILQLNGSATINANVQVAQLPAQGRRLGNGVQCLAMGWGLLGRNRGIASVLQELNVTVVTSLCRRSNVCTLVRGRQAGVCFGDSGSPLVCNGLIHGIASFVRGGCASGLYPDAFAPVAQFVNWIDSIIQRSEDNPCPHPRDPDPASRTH
# HNE [2] = biological target: T1, HNE; assay: Bronchoalveolar lavage of the lungs following HNE exposure (lung blood cell level); type: in vivo; conditions: mice
# Description: A total of 14 animals were used in this study. Anesthetized mice received 0.1 ml of solution delivered by a blunt tip catheter to the opening of the trachea and the animals allowed to aspirate the solution into their lungs. All animals were exposed to the treatment for 2 hours and re-anesthetized. Bronchoalveolar lavage of the lungs was performed as described below. […] Target 2 (a potent HNE inhibitor developed by Zeneca in the early 1990s) when given with the HNE, reduced the average blood level in the lungs by 34% to 0.035 grams. Target C (the Zeneca molecule covalently attached to the N-terminus of the first 25 residues of the human surfactant B peptide) when given with the HNE reduced the average blood level in the lungs by 87% to 0.007 grams.
# A set of animals was used to determine the optimal concentration of HNE for the study. […] The amount of HNE was reduced to 40 micrograms to maintain a maximal detrimental but survivable effect. The animals exposed to 40 micrograms of HNE were able to survive long enough to perform the complete study. All animals remaining in the complete study were exposed to 40 micrograms of HNE.
# Target 2 (the Zeneca molecule) was given in a 70-fold molar excess relative to HNE. In the kinetic studies, Target 2 has 2 nM affinity. […] Accordingly, the Target C was given to the animals in a 100 fold molar excess relative to HNE in these studies.
# Bronchio-Alveolar lavage (BAL) is performed by 1) anesthetizing the animals; 2) performing a tracheotomy on the animals and cutting open the chest and spreading the ribs to enable full lung expansion; 3) pressurizing lml of PBS buffer solution into the lungs through the tracheotomy catheter; 4) sucking the solution out of the lungs; 5) centrifuging the recovered solution to separate the red blood cell fraction from the liquid fraction; and 6) weighing the red blood cell fraction.
# [3] = given with 40 micrograms HNE via trachea, 2 hours exposure, weight of BAL red blood cell fraction, Target 2 70-fold, Target C 100 fold molar excess relative to HNE
substance,measurement,setting,value
Target C: the Zeneca molecule covalently attached to the N-terminus of the first 25 residues of the human surfactant B peptide (FPIPLPYCWLCRALIKRIQAMIPKG),Ki,HNE [1],~200 nM
same,loss of potency as compared to Target 2,HNE [1],approximately two orders of magnitude
same,"Lung Blood Cell Level Measurements, Mouse group 1",HNE [2]; [3],0 g
same,"Lung Blood Cell Level Measurements, Mouse group 2",HNE [2]; [3],0.007 g
same,"Lung Blood Cell Level Measurements, Mouse group 3",HNE [2]; [3],0.014 g
same,"Lung Blood Cell Level Measurements, Group mean","HNE [2]; given with 40 micrograms HNE, 2 hours exposure, mean of the mouse groups",0.007 g
same,average blood level in the lungs (lung blood cell level by weight),"HNE [2]; given with the HNE, 2 hours exposure",0.007 grams
same,reduction of the average blood level in the lungs,"HNE [2]; given with the HNE, relative to animals given HNE (0.053 grams)",87%
